# From IntAct's records for PubMed 28054552
# B1: Hexokinase-1 (Homo sapiens), P19367 (parent)
# chain: MIAAQLLAYYFTELKDDQVKKIDKYLYAMRLSDETLIDIMTRFRKEMKNGLSRDFNPTATVKMLPTFVRSIPDGSEKGDFIALDLGGSSFRILRVQVNHEKNQNVHMESEVYDTPENIVHGSGSQLFDHVAECLGDFMEKRKIKDKKLPVGFTFSFPCQQSKIDEAILITWTKRFKASGVEGADVVKLLNKAIKKRGDYDANIVAVVNDTVGTMMTCGYDDQHCEVGLIIGTGTNACYMEELRHIDLVEGDEGRMCINTEWGAFGDDGSLEDIRTEFDREIDRGSLNPGKQLFEKMVSGMYLGELVRLILVKMAKEGLLFEGRITPELLTRGKFNTSDVSAIEKNKEGLHNAKEILTRLGVEPSDDDCVSVQHVCTIVSFRSANLVAATLGAILNRLRDNKGTPRLRTTVGVDGSLYKTHPQYSRRFHKTLRRLVPDSDVRFLLSESGSGKGAAMVTAVAYRLAEQHRQIEETLAHFHLTKDMLLEVKKRMRAEMELGLRKQTHNNAVVKMLPSFVRRTPDGTENGDFLALDLGGTNFRVLLVKIRSGKKRTVEMHNKIYAIPIEIMQGTGEELFDHIVSCISDFLDYMGIKGPRMPLGFTFSFPCQQTSLDAGILITWTKGFKATDCVGHDVVTLLRDAIKRREEFDLDVVAVVNDTVGTMMTCAYEEPTCEVGLIVGTGSNACYMEEMKNVEMVEGDQGQMCINMEWGAFGDNGCLDDIRTHYDRLVDEYSLNAGKQRYEKMISGMYLGEIVRNILIDFTKKGFLFRGQISETLKTRGIFETKFLSQIESDRLALLQVRAILQQLGLNSTCDDSILVKTVCGVVSRRAAQLCGAGMAAVVDKIRENRGLDRLNVTVGVDGTLYKLHPHFSRIMHQTVKELSPKCNVSFLLSEDGSGKGAALITAVGVRLRTEASS
# B2: Hexokinase-2 (Homo sapiens), P52789 (parent)
# chain: MIASHLLAYFFTELNHDQVQKVDQYLYHMRLSDETLLEISKRFRKEMEKGLGATTHPTAAVKMLPTFVRSTPDGTEHGEFLALDLGGTNFRVLWVKVTDNGLQKVEMENQIYAIPEDIMRGSGTQLFDHIAECLANFMDKLQIKDKKLPLGFTFSFPCHQTKLDESFLVSWTKGFKSSGVEGRDVVALIRKAIQRRGDFDIDIVAVVNDTVGTMMTCGYDDHNCEIGLIVGTGSNACYMEEMRHIDMVEGDEGRMCINMEWGAFGDDGSLNDIRTEFDQEIDMGSLNPGKQLFEKMISGMYMGELVRLILVKMAKEELLFGGKLSPELLNTGRFETKDISDIEGEKDGIRKAREVLMRLGLDPTQEDCVATHRICQIVSTRSASLCAATLAAVLQRIKENKGEERLRSTIGVDGSVYKKHPHFAKRLHKTVRRLVPGCDVRFLRSEDGSGKGAAMVTAVAYRLADQHRARQKTLEHLQLSHDQLLEVKRRMKVEMERGLSKETHASAPVKMLPTYVCATPDGTEKGDFLALDLGGTNFRVLLVRVRNGKWGGVEMHNKIYAIPQEVMHGTGDELFDHIVQCIADFLEYMGMKGVSLPLGFTFSFPCQQNSLDESILLKWTKGFKASGCEGEDVVTLLKEAIHRREEFDLDVVAVVNDTVGTMMTCGFEDPHCEVGLIVGTGSNACYMEEMRNVELVEGEEGRMCVNMEWGAFGDNGCLDDFRTEFDVAVDELSLNPGKQRFEKMISGMYLGEIVRNILIDFTKRGLLFRGRISERLKTRGIFETKFLSQIESDCLALLQVRAILQHLGLESTCDDSIIVKEVCTVVARRAAQLCGAGMAAVVDRIRENRGLDALKVTVGVDGTLYKLHPHFAKVMHETVKDLAPKCDVSFLQSEDGSGKGAALITAVACRIREAGQR
# Variants of: B1
# Conditions: with src_mouse Src
row,Variant,effect of a mutation on the interaction
1,Y27F,with no effect
2,Y732F,disrupting interaction strength
3,Y417F,with no effect

# Variants of: B2
# Conditions: with src_mouse Src
row,Variant,effect of a mutation on the interaction
1,Y686F,disrupting interaction strength
